5 molecules from patent US20220227882A1 (TRUSTEES OF TUFTS COLLEGE, published 2022) can be followed below.

Series [1] deals with Recombinant human ADAM8 (rHuADAM8) ectodomain protein (aa 17-497), ACRO Biosystems AD8-H5223 (human) (UniProt P78325). The series can be described thus: adhesion of α9β1 integrin CHO cells to coated rHuADAM8, antibody 20 µg/ml, vs isotype control IgG; mean ± S.D., n=3.
The target of series [2] is Full-length human ADAM8 on cells (HEK293-ADAM8 stable or transfected cells; also endogenous ADAM8 of breast cell lines and PDX tumors) (human) (UniProt P78325).
Series [3] has the same target. The series can be described thus: FACS, HEK293-ADAM8 cells, column 1 µg/ml, negative control. On the technique in general: Flow cytometry measures light scatter and fluorescence of single cells or particles in a stream.
The target is the same in series [4]. The series can be described thus: FACS, HEK293-ADAM8 cells, column 10 µg/ml, negative control.
Series [5] has the same target. The series can be described thus: FACS, HEK293-ADAM8 cells, column 0.1 µg/ml, negative control.
Series [6] deals with Quenched fluorescent CD23 peptide (Biozyme, PEPDAB013m001).
Series [7] deals with T1, Recombinant human ADAM8 (rHuADAM8) ectodomain protein (aa 17-497), ACRO Biosystems AD8-H5223 (human, UniProt P78325 17-497).
T1 construct: Bought protein made in HEK293 cells; The protein clips off its own prodomain (aa 17-191); also called rhADAM8; immunogen
T1 sequence: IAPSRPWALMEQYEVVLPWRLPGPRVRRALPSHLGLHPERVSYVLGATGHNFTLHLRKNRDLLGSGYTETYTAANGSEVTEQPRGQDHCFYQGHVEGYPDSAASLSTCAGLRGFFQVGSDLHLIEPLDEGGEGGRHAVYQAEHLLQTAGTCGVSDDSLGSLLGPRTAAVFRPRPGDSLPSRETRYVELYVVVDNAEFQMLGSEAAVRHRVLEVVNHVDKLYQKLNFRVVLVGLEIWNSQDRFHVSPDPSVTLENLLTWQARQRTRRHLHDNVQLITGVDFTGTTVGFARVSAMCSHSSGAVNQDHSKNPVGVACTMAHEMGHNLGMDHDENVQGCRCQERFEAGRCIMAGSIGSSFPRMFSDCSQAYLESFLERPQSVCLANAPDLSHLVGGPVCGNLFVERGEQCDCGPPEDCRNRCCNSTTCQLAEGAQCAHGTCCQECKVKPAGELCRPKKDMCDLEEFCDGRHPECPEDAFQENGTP
The series can be described thus: ELISA on coated rHuADAM8, antibody 0 to 2.5 nM.

For “MAB1031 anti-ADAM8 antibody (R&D Systems)”, in series [1], the % inhibition of α9β1 integrin binding to ADAM8 stood at 63.4 % inhibition. In series [2], this molecule came in with a % inhibition of CD23 cleavage (MP activity), HEK293 cells co-expressing CD23 and ADAM8, antibody 20 µg/ml of 65.8 % inhibition; a % inhibition of transendothelial migration of MDA-MB-231 cells through HUVEC, antibody 20 µg/ml of 42.4 % inhibition.

Take mIgG (antibody): the values for the MFI in series [3], in series [4] and in series [5] were 3.2 MFI, 4 MFI and 3.3 MFI, respectively.

B1: Recombinant human ADAM8 (rHuADAM8) ectodomain protein (aa 17-497), ACRO Biosystems AD8-H5223 (protein)
chain: IAPSRPWALMEQYEVVLPWRLPGPRVRRALPSHLGLHPERVSYVLGATGHNFTLHLRKNRDLLGSGYTETYTAANGSEVTEQPRGQDHCFYQGHVEGYPDSAASLSTCAGLRGFFQVGSDLHLIEPLDEGGEGGRHAVYQAEHLLQTAGTCGVSDDSLGSLLGPRTAAVFRPRPGDSLPSRETRYVELYVVVDNAEFQMLGSEAAVRHRVLEVVNHVDKLYQKLNFRVVLVGLEIWNSQDRFHVSPDPSVTLENLLTWQARQRTRRHLHDNVQLITGVDFTGTTVGFARVSAMCSHSSGAVNQDHSKNPVGVACTMAHEMGHNLGMDHDENVQGCRCQERFEAGRCIMAGSIGSSFPRMFSDCSQAYLESFLERPQSVCLANAPDLSHLVGGPVCGNLFVERGEQCDCGPPEDCRNRCCNSTTCQLAEGAQCAHGTCCQECKVKPAGELCRPKKDMCDLEEFCDGRHPECPEDAFQENGTP
For the molecule B1, the “fluorescence released from a quenched CD23 peptide over 24 hr” value in series [6] is reported as “An increase in fluorescence was seen over time in samples with rHuADAM8, which was inhibited in the presence of the chelating agent EDTA”.

B2: chADP2-IgG1 (antibody, V domains shown)
VH: EVKLVESGGGLVQPGGSLSLSCAASGFSFPDYYMSWVRQPPGKALEWLGFIRDSANGYTTEYIASVKGRFTFSRDNSQSILYLQMNALRAEDSATYYCARYSRYYGMDYWGQGTSVTVSS
VL: SIVMTQTPKILLVSAGDRVTITCKASQTVNYDVAWYQQKPGQSPKPVIYFASNRYTGVPDRFTGSGFGTDFTFTISTVQAEDLAVYFCQQDYSAPWTFGGGTKLEIKR
notes: Mouse ADP2 VL and VH joined to germline human IgG1 CL and CH; made in CHO cells; also called chimeric ADP2
Broadly, the Kd is the equilibrium constant for the complex coming apart. With B2, in series [7], the equilibrium dissociation constant (Kd) was 0.0366 nM.

B3: chADP13-IgG1 (antibody, V domains shown)
VH: EVQLQQSGPEMVKPGTSVKISCKASGYTFTDYYINWVKQSHGKSLEWIGDISPNIGGATYNPKFKGKAILTVDKSARTAYMELRSLTSEDSAVYCCTRGGSSYPYFYAMDYWGQGTSVTVSS
VL: DIVMSQSPSSLAVSVGEKVTMSCKSSQSLLYSSNQKKYLAWYQQKPGQSPKLLIYWASTRESGVPDRFTGSGSGTDFTLTISSVKAEDLAVYYCQQFYSYPYTFGGGTKLEIKR
notes: Mouse ADP13 VL and VH joined to germline human IgG1 CL and CH; made in CHO cells; also called chimeric ADP13
For the molecule B3, the Kd in series [7] was 0.0795 nM.
